Common to all, as to assay: immunoblots of bio-IPs from Jurkat cells with stable expression
A general note: In western blotting, separated proteins are transferred to a membrane and probed.

Assay [1] has as its target T1, MALT1 (wild type, Flag- and Avi-tagged bio-construct) (human, UniProt Q9UDY8 1-824, Avi-tag biotinylated in vivo by co-expressed BirA).
T1 construct: also called paracaspase; bio-IP purified MALT1
T1 sequence (looked up): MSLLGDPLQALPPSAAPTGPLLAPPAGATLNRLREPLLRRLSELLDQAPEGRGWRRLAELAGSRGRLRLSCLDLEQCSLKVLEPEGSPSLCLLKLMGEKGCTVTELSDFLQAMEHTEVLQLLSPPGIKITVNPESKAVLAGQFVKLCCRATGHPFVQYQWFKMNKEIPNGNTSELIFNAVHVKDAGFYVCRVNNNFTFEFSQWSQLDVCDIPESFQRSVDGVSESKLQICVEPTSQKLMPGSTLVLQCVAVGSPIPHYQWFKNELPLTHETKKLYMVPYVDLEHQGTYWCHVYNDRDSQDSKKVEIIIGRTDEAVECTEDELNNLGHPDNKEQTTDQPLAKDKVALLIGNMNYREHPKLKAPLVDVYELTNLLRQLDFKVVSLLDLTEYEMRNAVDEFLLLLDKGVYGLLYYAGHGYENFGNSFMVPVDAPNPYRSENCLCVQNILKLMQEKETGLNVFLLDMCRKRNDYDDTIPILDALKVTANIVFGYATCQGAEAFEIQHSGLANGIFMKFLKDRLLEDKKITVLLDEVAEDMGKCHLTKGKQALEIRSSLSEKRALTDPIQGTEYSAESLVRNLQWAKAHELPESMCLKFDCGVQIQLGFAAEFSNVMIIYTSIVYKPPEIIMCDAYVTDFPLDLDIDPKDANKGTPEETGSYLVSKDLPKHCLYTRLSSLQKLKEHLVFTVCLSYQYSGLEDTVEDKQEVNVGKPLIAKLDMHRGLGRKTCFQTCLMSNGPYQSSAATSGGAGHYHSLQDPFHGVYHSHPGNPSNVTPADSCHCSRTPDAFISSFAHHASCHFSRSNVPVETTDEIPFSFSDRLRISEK

The target of another assay is T2, MALT1-C464A (bio-tagged) (human, UniProt Q9UDY8 1-824).
T2 construct: also called C464A mutant; C464 mutant
T2 sequence (looked up): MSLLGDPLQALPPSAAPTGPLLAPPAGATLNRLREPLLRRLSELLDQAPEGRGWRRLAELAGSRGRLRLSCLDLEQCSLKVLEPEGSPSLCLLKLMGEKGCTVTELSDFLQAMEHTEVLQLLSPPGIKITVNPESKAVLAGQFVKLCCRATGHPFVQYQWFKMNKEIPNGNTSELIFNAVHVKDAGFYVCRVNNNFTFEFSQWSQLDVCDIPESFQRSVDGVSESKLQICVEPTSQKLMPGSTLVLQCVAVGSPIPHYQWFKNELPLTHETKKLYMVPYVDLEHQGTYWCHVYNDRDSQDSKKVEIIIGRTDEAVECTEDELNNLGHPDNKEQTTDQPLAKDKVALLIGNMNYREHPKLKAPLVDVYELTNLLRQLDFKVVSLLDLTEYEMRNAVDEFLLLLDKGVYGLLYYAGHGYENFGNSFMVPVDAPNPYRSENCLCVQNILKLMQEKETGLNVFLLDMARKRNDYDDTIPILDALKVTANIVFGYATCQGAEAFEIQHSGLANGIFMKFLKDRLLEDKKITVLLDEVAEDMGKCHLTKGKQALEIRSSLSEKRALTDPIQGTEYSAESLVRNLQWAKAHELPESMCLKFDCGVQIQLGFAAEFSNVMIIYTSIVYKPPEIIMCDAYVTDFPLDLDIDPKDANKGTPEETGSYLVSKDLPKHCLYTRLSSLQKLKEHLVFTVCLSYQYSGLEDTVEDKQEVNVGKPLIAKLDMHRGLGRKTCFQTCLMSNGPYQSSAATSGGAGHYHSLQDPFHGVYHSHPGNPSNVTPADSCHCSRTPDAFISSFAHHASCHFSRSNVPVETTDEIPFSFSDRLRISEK

For the next assay, the target named is T3, MALT1-R149A (bio-tagged) (human, UniProt Q9UDY8 1-824, Avi-tag biotinylated in vivo by co-expressed BirA).
T3 construct: also called R149A mutant
T3 sequence (looked up): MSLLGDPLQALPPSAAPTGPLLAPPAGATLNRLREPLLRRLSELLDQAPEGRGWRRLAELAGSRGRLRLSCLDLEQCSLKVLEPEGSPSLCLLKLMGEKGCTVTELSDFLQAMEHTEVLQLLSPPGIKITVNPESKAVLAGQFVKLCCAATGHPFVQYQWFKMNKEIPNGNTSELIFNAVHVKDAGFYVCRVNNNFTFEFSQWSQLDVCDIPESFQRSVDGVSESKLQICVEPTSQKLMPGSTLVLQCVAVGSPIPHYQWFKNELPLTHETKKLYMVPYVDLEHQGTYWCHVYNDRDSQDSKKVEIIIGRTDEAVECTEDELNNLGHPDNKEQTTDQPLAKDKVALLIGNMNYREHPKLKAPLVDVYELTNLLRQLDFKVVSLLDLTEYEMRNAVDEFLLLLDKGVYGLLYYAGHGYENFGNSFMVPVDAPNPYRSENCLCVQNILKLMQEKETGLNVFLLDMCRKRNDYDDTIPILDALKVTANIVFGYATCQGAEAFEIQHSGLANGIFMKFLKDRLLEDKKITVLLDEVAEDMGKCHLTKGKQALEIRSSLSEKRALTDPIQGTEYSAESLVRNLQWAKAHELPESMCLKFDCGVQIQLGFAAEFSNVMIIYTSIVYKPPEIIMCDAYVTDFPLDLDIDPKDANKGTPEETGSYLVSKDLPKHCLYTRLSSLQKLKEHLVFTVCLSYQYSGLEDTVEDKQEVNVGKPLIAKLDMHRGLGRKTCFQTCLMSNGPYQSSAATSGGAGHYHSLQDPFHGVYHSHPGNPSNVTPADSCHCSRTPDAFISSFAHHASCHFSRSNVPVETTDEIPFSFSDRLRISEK

B1: BCL10 (other, UniProt O95999 1-233, looked up)
chain: MEPTAPSLTEEDLTEVKKDALENLRVYLCEKIIAERHFDHLRAKKILSREDTEEISCRTSSRKRAGKLLDYLQENPKGLDTLVESIRREKTQNFLIQKITDEVLKLRNIKLEHLKGLKCSSCEPFPDGATNNLSRSNSDESNFSEKLRASTVMYHPEGESSTTPFFSTNSSLNLPVLEVGRTENTIFSSTTLPRPGDPGAPPLPPDLQLEEEGTCANSSEMFLPLRSRTVSRQ
notes: Co-precipitated from lysates of human cell lines
In the case of B1, the binding result in assay [1] is recorded as “binds”.

B2: TRAF6 (other, UniProt Q9Y4K3 1-522, looked up)
chain: MSLLNCENSCGSSQSESDCCVAMASSCSAVTKDDSVGGTASTGNLSSSFMEEIQGYDVEFDPPLESKYECPICLMALREAVQTPCGHRFCKACIIKSIRDAGHKCPVDNEILLENQLFPDNFAKREILSLMVKCPNEGCLHKMELRHLEDHQAHCEFALMDCPQCQRPFQKFHINIHILKDCPRRQVSCDNCAASMAFEDKEIHDQNCPLANVICEYCNTILIREQMPNHYDLDCPTAPIPCTFSTFGCHEKMQRNHLARHLQENTQSHMRMLAQAVHSLSVIPDSGYISEVRNFQETIHQLEGRLVRQDHQIRELTAKMETQSMYVSELKRTIRTLEDKVAEIEAQQCNGIYIWKIGNFGMHLKCQEEEKPVVIHSPGFYTGKPGYKLCMRLHLQLPTAQRCANYISLFVHTMQGEYDSHLPWPFQGTIRLTILDQSEAPVRQNHEEIMDAKPELLAFQRPTIPRNPKGFGYVTFMHLEALRQRTFIKDDTLLVRCEVSTRFDMGSLRREGFQPRSTDAGV
notes: as for B1
As for B2, the binding result with MALT1-C464A (bio-tagged) and with MALT1-R149A (bio-tagged) was “binds” in each case.

These data come from patent publication US8309523 (VIB VZW, dated 2012).
